Assay [1] deals with T1, His-tagged and Fc-tagged mouse ALK2 protein (Sino Biological) (Mus musculus, UniProt P37172).
T1 construct: activin receptor-like kinase 2 (ALK2), mouse, extracellular domain; also called 6x His-tagged mouse ALK2 ECD fused to human IgG Fc; source: bought: Sino Biological Inc
In words: SPR; BIAcore T200; anti-histidine antibody immobilised on a CM5 chip, His- and Fc-tagged ALK2 (10 μg/ml) captured; antibody 0.195-50 nM injected, single-cycle kinetics, 300 s association, 1800 s dissociation, 30 μl/min; bivalent analyte model; the methods speak of avidity. Particulars: both partners purified.

Assay [2] has as its target T2, His-tagged and Fc-tagged human ALK2 protein (Sino Biological) (Homo sapiens, UniProt Q04771).
T2 construct: activin receptor-like kinase 2 (ALK2), human; source: bought: Sino Biological Inc
Described as above. The following applies: both partners purified.

In assay [3] the target is T3, His-tagged and Fc-tagged mouse ALK2 protein (Sino Biological) (mouse, UniProt P37172 21-123).
T3 chain: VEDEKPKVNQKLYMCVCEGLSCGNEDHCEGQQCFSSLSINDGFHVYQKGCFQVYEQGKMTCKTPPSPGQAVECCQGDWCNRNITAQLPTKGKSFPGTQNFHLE
The assay is described as follows: SPR. For orientation: SPR reads the build-up and loss of mass on a sensor chip optically.

For assay [4], the target named is T4, His-tagged and Fc-tagged human ALK2 protein (Sino Biological) (human, UniProt Q04771 21-123).
T4 chain: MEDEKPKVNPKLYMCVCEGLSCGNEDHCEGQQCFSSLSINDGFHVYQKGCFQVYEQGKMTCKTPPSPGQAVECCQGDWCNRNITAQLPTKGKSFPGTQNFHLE
In words: SPR.

For the next assay, the target named is V5-tagged mouse ALK2 (mouse, UniProt P37172). The assay is described as follows: cell-based or functional assay.
Sequence of V5-tagged mouse ALK2 (P37172 21-509): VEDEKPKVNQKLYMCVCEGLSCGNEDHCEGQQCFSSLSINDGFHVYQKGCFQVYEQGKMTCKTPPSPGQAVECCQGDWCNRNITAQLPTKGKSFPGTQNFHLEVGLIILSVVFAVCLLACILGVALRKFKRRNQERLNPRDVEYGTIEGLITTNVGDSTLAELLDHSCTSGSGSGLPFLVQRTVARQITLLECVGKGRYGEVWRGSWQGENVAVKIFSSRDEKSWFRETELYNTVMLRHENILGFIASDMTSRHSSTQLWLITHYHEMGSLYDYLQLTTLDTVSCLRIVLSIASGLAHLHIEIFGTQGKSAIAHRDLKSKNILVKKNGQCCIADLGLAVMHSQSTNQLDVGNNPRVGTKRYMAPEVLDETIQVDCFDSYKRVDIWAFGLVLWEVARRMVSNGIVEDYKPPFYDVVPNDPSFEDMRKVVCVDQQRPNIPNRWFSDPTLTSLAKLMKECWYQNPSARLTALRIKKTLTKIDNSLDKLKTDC

B1: Rm0443, rat anti-ALK2 monoclonal antibody clone #0443 (antibody, V domains shown)
VH: EVQLVESGGGLVQPGRSLKLSCLASGSTFSNYGMKWIRQAPGKGLEWVASISRSSTYIYYADTVKGRFTISRDNARNTLYLQMTSLRSEDTALYYCAAAISTPFYWYFDFWGPGTVVTVSS
VL: EIVLTQSPTTMAASPGEKVTLNCLASSSVSYMTWYQQKSGASPKLWIYGTSNLASGVPNRFSGSGSGTSYSLAISSMEAEDVATYYCLHLTSYPPYTFGAGTKLELK
notes: variable region as in the heavy chain of the chimeric Fab m2 (PDB 7YRU); variable region as in the light chain of the chimeric Fab m2 (PDB 7YRU); Whole rat IgG from the hybridoma; PDB 7YRU holds the rat variable regions on human IgG1 kappa constant regions; source: rat hybridoma, purified from serum-free conditioned medium (protein G column)
As a reminder, the koff is a measure of how fast the partners let go of each other. Low readings indicate slow dissociation, high ones fast dissociation. In the case of B1, the Kd in assay [1] worked out at 5.1 nM; in assay [2], 5.6 nM. Also, the koff is 0.00563 s⁻¹ in assay [3] and 0.00576 s⁻¹ in assay [4]. The “IC50 of Rm0443 against ALP activity induced by 300 ng/ml BMP7 in C2C12 cells (endogenous ALK2), day 3” value with V5-tagged mouse ALK2 turned out to be 0.017 µg/mL. Moreover, in the assay with V5-tagged mouse ALK2, the “IC50 of Rm0443 against BMP-specific luciferase reporter activity induced by 300 ng/ml BMP7 in C2C12 cells (endogenous ALK2), overnight” value was found to be 0.216 µg/mL.

(Values after publication PMC10212922, “A blocking monoclonal antibody reveals dimerization of intracellular domains of ALK2 associated with genetic disorders” (Nature Communications, 2023).)
